# How the values were obtained:
# MS2 coat protein = experiment: apparent KD of MS2 coat protein; higher = weaker reporter binding; conditions: Eterna round: R107
# Protocol: (§1)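 RNA-MaP round R107: designed RNA switches with theophylline, tryptophan, arginine or FMN aptamers are transcribed on-chip within common flanks. They are titrated with SNAP-549-labelled MS2 coat protein in RNA-MaP buffer (100 mM Tris pH 7.5, 80 mM KCl, 4 mM MgCl2), without ligand or with the indicated ligand. Median apparent KD per design.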
# [1] = tested on: K4 kissing-loop RNA reporter; experiment: apparent KD of K4 kissing-loop reporter; higher = weaker reporter binding; conditions: Eterna round: R107;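 note: bound reporter read as fluorescence of individual clusters on recovered sequencing chips by microscopy, with normalized cluster intensities fitted with a binding model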
# Protocol: as §1, with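 “a labelled K4 kissing-loop RNA reporter” for “SNAP-549-labelled MS2 coat protein”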
# [2] = input ligand: theophylline 20 uM
# [3] = input ligand: tryptophan 2.4 mM
# [4] = input ligand: theophylline 2 mM
Sequence,apparent KD of MS2 coat protein (MS2 coat protein; input ligand: arginine 13.2 mM),apparent KD of MS2 coat protein (MS2 coat protein; [2]),apparent KD of MS2 coat protein (MS2 coat protein; [3]),apparent KD of MS2 coat protein (MS2 coat protein; input ligand: none),apparent KD of MS2 coat protein (MS2 coat protein; [4]),apparent KD of K4 kissing-loop reporter ([1]; input ligand: FMN 200 uM),apparent KD of K4 kissing-loop reporter ([1]; input ligand: arginine 13.2 mM),apparent KD of K4 kissing-loop reporter ([1]; input ligand: none),"apparent KD of K4 kissing-loop reporter [1, 2]","apparent KD of K4 kissing-loop reporter [1, 3]"
UCGUGUGUUUCGGAUACCAGUGAAAUCGAUACAUGAGGAUCACCCAUGUGAGAGGAUGUACACCCUUGGCAGCUGUCUGUAUCUG [asczmullin],14.7 nM,16.8 nM,12.1 nM,,,,,,,
GGAUAGGACACGGCCGCCACUACCUAGGAUACUAGCAACAUUUGGGUACAAGAGGAUCACCCUUGUAGGACCGGGUGUCCUAUCG,23.1 nM,28 nM,59 nM,22.1 nM,25.5 nM,,,,,
GUGUGGAGCUCGGCCGCCACUCAAACAUGAGGAUCACCCAUGUAAAACAUGAGGAUCACCCAUGUGAGGACCGGGAGAAACACGA [Exclusion Tryptophan B GF8],179 nM,329 nM,,,408 nM,,,,,
UGUAUGUGAUCUGAUACCAGCUAAUAAGCUUGAGGAUCACCCAAGUGGAGCGGAAACGCAAGCCCUUGGCAGCAGAUCGCAUACU [Denovo 4 #StaticStem #AlternativeMS2],60.9 nM,50.6 nM,98.9 nM,89.3 nM,12.7 nM,,,,,
GGUGGAGGCGUGGGACUUGUCUGAACGGAUACCAGCCACAUCACGGGCCCUUGGCAGCUGUACAUGAGGAUCACCCAUGUCGGUC [Atestevete],33.6 nM,45.2 nM,34.8 nM,,,,,,,
AGUACAUGAGGAUCACCCAUGUGCCGGUAACGAGGACCGGUACGGCCGCCACUCGAUGUACCUCAAUUUGAUUGAGAUAAGAAAA [Anorbian],34.2 nM,57.6 nM,,,47.4 nM,,,,,
AUCGUACCUGAUGAUACCAGCAUGUGAUCAUAACAUGAGGAUCACCCAUGUAAUCAGUGAUGCCCUUGGCAGCAUGAUCGGUACA [Same State - Theophylline B (Freestyle 13)],45.5 nM,79.6 nM,56.7 nM,,,,,,,
AUGCCUAGUGGAAGGAGCGAGGGUCUUCCCAACAUGAGGAUCACCCAUGUUCUUUUACACCCUCAGGUAGGUCGCCAUUGGGACA [Tilexete],41.7 nM,107 nM,82.8 nM,64.6 nM,47.6 nM,,,,,
UGGUGUAGGGUAAAUAGGAUUAGUACAGAAGGAGCGCGAAUAAACGCAGGUAGGUCGCUGGAAUAACAUGAGGAUCACCCAUGUC [Same State Arginine A GF 26],19.6 nM,30.6 nM,27.8 nM,24.8 nM,26.2 nM,,,,,
UGAGAACAUGUCUUUAAGUUUACCUCUGAUACCAGAUUGAAAGGCAUCCCUUGGCAGCAGCAUACAUGAGGAUCACCCAUGUCCU [theeternabot_exclusion_MS2_Theo_A_12],64.4 nM,119 nM,88.9 nM,,,,,,,
CGAUCCUGCAGGGAUACCAGCGCCGCUUGAUAACUGUGCACAUGAGGAUCACCCAUGUAGCGCCCUUGGCAGCCCAGCUAGAGGG [Same State Theophylline B GF25],12.9 nM,29.2 nM,14.7 nM,15 nM,13.9 nM,,,,,
UAAAACAUGAGGAUCACCCAUGUAAAUGAUACCAGAGUGAUGAUCCUCCCUUGGCAGCAUAACGCUGAUUGAUUACAAUCAGCGA [Mat - Same State Theophlline A - Mod of Eli - D22],55.2 nM,160 nM,58.3 nM,,,,,,,
GAGAGAGGAGUGCGGCGUGUUCCGCUCCGUCGAGGACCGGUACGGCCGCCACUCGACAUGAGGAUCACCCAUGUCCUCUCUCGCG [#1 Exclusion - Tryptophan A Attempt #4 (HarryS)],16.8 nM,102 nM,,,42.1 nM,,,,,
UUCGUUUGCGGAAGGAGCGACGGACAUCGGUGAACGACGCACAUGAGGAUCACCCAUGUACGUCAGGUAGGUCGCCGCUAAGAGU [Tibira],15.5 nM,22.3 nM,19.8 nM,18 nM,25.2 nM,,,,,
GGAUGAAACUGAAGGAGCGAGAACACAAGAAUGGGUCAAACAUGAGGAUCACCCAUGUAAUCUCAGGUAGGUCGCAGUAUCCCUU [Exclusion Arginine B GF 10],44 nM,50 nM,36.6 nM,34.3 nM,53.3 nM,,,,,
UAUCCACAUGAGGAUCACCCAUGUAGGGAAGGAGCGGUGGUUGCACCAGGUAGGUCGCCUUGCUGAGGAUAACCGGUGGAAUCGU [Exclusion - Arginine A (Freestyle 28)],32.8 nM,26.9 nM,31.1 nM,18.8 nM,33.6 nM,,,,,
UCACGACGCAACGUGAAAUAAUAAACAGAAGGAGCGAGGAAAGCCUCAGGUAGGUCGCUGACAUGAGGAUCACCCAUGUAUUACA [Same State Arginine A GF5],27.1 nM,41.2 nM,32.2 nM,31.5 nM,35.1 nM,,,,,
GCUACGUGCUGAAGGAGCGUGGACCUAAACAUGAGGAUCACCCAUGUCGUGUAGGCAGAUUCACAGGUAGGUCGCAGCACGUAGC [SSAB NP+V+V2 #14 Same Structure],61.2 nM,123 nM,99.7 nM,92.2 nM,120 nM,,,,,
CUGCAACAUAACUUCUUCGUCCUAGAAGACUAGGAUAUCAGGAAACUGAGAAGGAGUCUCUGCAGUGAUGUUGCAGCUAGGACGA [[K]'-[F2]'-[F1]'-[F1]-[F2]-[K1]-[K2]-[F]''_Design3],,,,,,195 nM,159 nM,148 nM,197 nM,173 nM

Sequence,apparent KD of MS2 coat protein (MS2 coat protein; input ligand: arginine 13.2 mM),apparent KD of MS2 coat protein (MS2 coat protein; [2]),apparent KD of MS2 coat protein (MS2 coat protein; [3]),apparent KD of MS2 coat protein (MS2 coat protein; input ligand: none),apparent KD of MS2 coat protein (MS2 coat protein; [4]),apparent KD of K4 kissing-loop reporter ([1]; input ligand: FMN 200 uM),apparent KD of K4 kissing-loop reporter ([1]; input ligand: arginine 13.2 mM),apparent KD of K4 kissing-loop reporter ([1]; input ligand: none),"apparent KD of K4 kissing-loop reporter [1, 2]","apparent KD of K4 kissing-loop reporter [1, 3]"
UUUGAAAUGUCUGAUACCAGAGAAAAUAUAUGUAGUGAUGUUAUAUACAAAUUUAAUAAGCUCCCUUGGCAGCAGUAUGAAUUUU [AstrosExc-TheB#14],,,,,,593 nM,717 nM,796 nM,748 nM,582 nM
GCUAAGUGAUGUUUAUGCCGCCGACCGGAUACCAGCUACUAGGCAAGCCCUUGGCAGCCGCUAUGUGACCGAUCAUUAGUUAUGU [theeternabot_exclusion_KL_Theo_A_6],,,,,,857 nM,734 nM,913 nM,790 nM,682 nM
GCGCGUCAUGUCAGCGGAGACACUGUCGAUACCAGCGCCGCAAGGCGCCCUUGGCAGCGACGCGCUGGAGUGAUGUUCCAGCGUG [#2 Exclusion - Theophylline A Attempt #15 (HarryS)],,,,,,171 nM,154 nM,148 nM,143 nM,159 nM
AAAGAGUCACUCGAAGCCAUCGAAGAUGGGCGAGGACCGGUACGGCCGCCACUCGGAGUGAUGUUCCGAAGACUGUAAAAUAAAA [MatMod 11 - Jieux - Exclusion - Tryptophan A],,,,,,273 nM,242 nM,451 nM,362 nM,355 nM
CUUAUGGCGUUUGGAAGGAGCGGCUCAUCACGAGGACCGGUACGGCCGCCACUCGAGAGAGCAUAAGAAAGUGAUGUUUUCGGUU [theeternabot_sameState_KL_Trp_A_44],,,,,,517 nM,415 nM,496 nM,395 nM,314 nM
GGACGCCGGUCGGCCGCCACUCACAGCAGUGAUGUUCCUGAGAAUGUAGCGGAGUGAUGUUCCGAGAGGACCGGGACUGCAGUUU [Same State Tryptophan B GF 8],,,,,,799 nM,644 nM,777 nM,875 nM,840 nM
AAUCACCGAGCGGCCGCCACUGCACAAAGCGAGUUUAUAGACACGGUACUGGAGUGAUGUUCGAGCAGGACCGGGCUAACUAAGC [theeternabot_sameState_KL_Trp_B_12],,,,,,871 nM,610 nM,1190 nM,758 nM,729 nM
GCGCCGGUCUGCUUUAGAGUGAUGUUCUCCCGAGGACCGGUACGGCCGCCACUCGGCCAACGCUAUUAUCUUUGAUCCGCGGUGC [theeternabot_exclusion_KL_Trp_A_41],,,,,,1300 nM,840 nM,1000 nM,1120 nM,948 nM
CCUAUCUCUUACGAUACCAGUCAAUGAUAUUUUAUCAAUGCCCUCACCGAGUGAUGUUCGGACCCUUGGCAGCGUAUGGGAUAGG [kjnjmullin],,,,,,241 nM,162 nM,212 nM,175 nM,188 nM
GGAUAGGACAGAGGAUAUUGGUAGUGAUGUUACCAAAUAAAUAAACAGUCUACAAAGUAGGCUGACCAAGAAGGCUGUCCUAUCG [FmnBX 24 #SwitchBubble #StaticStem #Palindromic],,,,,,226 nM,79.1 nM,85.2 nM,80.1 nM,74.7 nM
CUGACUCAAUAGUCAGUGAUGUUGACUGGACGAGGACCGGUACGGCCGCCACUCGAGAGUGGUGUAAAAUAUGUCACAGAGUCAG [Tryp A SS t3b],,,,,,186 nM,194 nM,208 nM,182 nM,200 nM
UCGAAGGAUGGAAGGAGCGCUCGUCAGUCCUGCGAGUGAUGUUCGUGGGUAAAUAUUCGCGAGCAGGUAGGUCGCCAUCUCGAAC [Erbemaa],,,,,,149 nM,103 nM,141 nM,122 nM,117 nM
AGACUAUCGUCAAAGACGGUAGUCAAAAGUGAGGAUAUAGUGAUGUUUAGAAGGCACUAAGACUGUAUCGAAUAGAUACGGUCAA [FmnA 1 #K4BetweenAptamer #OpenEnded],,,,,,2120 nM,1320 nM,2120 nM,1250 nM,1920 nM
AGACUACCAACACUGUCAAUAGACAGUGACUAGGAUAUGCUGAUAAGCAGAAGGAGUGAUGUUCCUAAUAGAAAGGUAGUCAAAU [FmnAX 17 #SwitchBubble #StaticStem #K4Early],,,,,,294 nM,237 nM,252 nM,222 nM,219 nM
UAAUCUAACGAGAGUGAUGUUCUCGUCACAGAGGAUAUACGAUUUAGUAGAAGGCUGUUGGAUUCGCUUAAUGAUGACUAGAUUA [FMN A SS t1],,,,,,242 nM,196 nM,223 nM,232 nM,205 nM
AGUGAUGUAUGGCGGUGUGUCACUUAAAAUCAGGAUAUAUAAACAAAUAGAAGGGAUGGCGGAGUGAUGUUCCGCCGGCCGCCAU [FMN A Exl V2],,,,,,173 nM,147 nM,157 nM,165 nM,159 nM
ACGGUUUCCACGGCCGCCACUUGCGCAUUAGAUCUUACCCUAGGAGUGAUGUUCCAUACAAGUACAAGGACCGGGUGGGACAUAA [theeternabot_sameState_KL_Trp_B_28],,,,,,257 nM,369 nM,375 nM,342 nM,239 nM
AAGUCUCGUUAAUUCGUGGUUUCGAUCGAUACCAGUAGCGAGAGGUACCCUUGGCAGCGAAAUGAGUGAUGUUCAUGAAAGAAGA [KL-XTheoA11],,,,,,101 nM,124 nM,111 nM,153 nM,87.1 nM
